Results on 69 sequences are retold here after the domain aggregation screens of Martell et al. (2025).

A short description of this data set: soluble fraction after stress (log2 fold change); higher = more stays soluble; pooled small domains, quantitative proteomics. As to conditions: stress: 50 degC. The procedure, abridged: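 Each library was heated to 50°C as a stress step. The libraries, made up of small protein domains, were pooled and analysed at high throughput by quantitative proteomics. The reported value is the base-two logarithm of the fold change in each protein's soluble amount after stress, taken as a measure of aggregation propensity. The higher the value, the more protein stays in solution.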

Consider “HMGGEEPYGSGSLRLAAGAVVPSGYTIKGNEDSMLYHTTESPWYKQTIAEVWFNAESAAQRAGFTRWDAKD”, for which the “soluble fraction (log2)” value is -0.114.

For the sequence “HMGGQEEALNRLVLRELLGTLEKKERDLIVRRYFYDQTQTKIAEALGISQVQVSRMEKRILKKMREGF”, the “soluble fraction (log2)” value is -0.914. On to “HMDDATDLPYQEFRTQVSDGQVKIAQFNNNTGKITFESISGDKFKTSGPLELSSDDERLFLENIEDFKFFT”, for which the “soluble fraction (log2)” value came out at 0.104. In the case of “HMNYVFVLNEHGVRQTSYVVGLHADTLEKTEKLAKQTYPTSTIISGDSEMQSQFISGKAYVNGEFVDP” it was -0.471; in that of “HMGVAAPMPGTITDVRVKVGDRVQPRTVVMMLEAMKMENEIFAGRAGVVSQVAVEKGASVNTGDLLISIDP”, 0.129; in that of “HMGSNTLEDAYKVLGITPDATDDEVRKAYKKMVIQHHPDKVANLGEDVKKAATIKLQEINNAKEIIFKARN”, 0.139.

Regarding “HMQEQSSYVGQFGTAATTLRPSGTVELEDGTRIDVVTVGEFIEKGEPVQVVRKDGTWLVVEKRRSK”, the “soluble fraction (log2)” value came to 0.286. For the sequence “HMDSQKKNETLSSTADEIIKNYAGKRDLSEESMEQLEQFQKDMRGADVNIFTAAQIRMLDQIFQENLH”, the “soluble fraction (log2)” value was -0.0243. As for “HMAGVSVTSLTTFWRLAADTPDTPSGADDPSGWSRTEPSIPDGYEGKLYRTIRTIMSDGTATWTSPD”, the “soluble fraction (log2)” value is -0.357. “HMEEDPIIIAQRFLNIFRQLHIFSEEKKESFNKMLLEQPAEIRGALRSLPGGGLLQDYIDDLESKA”: the “soluble fraction (log2)” value is -0.151. Regarding “HMDLDEELDFLSDADESATKLDLARAYIDMGDKDGARDILAEVLEEGRSEQKREAQALLDSI”, the “soluble fraction (log2)” value was 0.406. In the case of “HMSKPTLTDELLTLDLFEEIIKAKENAKGANKRFSLVGFLESKYIVDQEMLPKVNVKVTEYYNLTREN”, the “soluble fraction (log2)” value was -0.117.

Regarding “HMSLDLNENEKTIFDIIQNKKTIRLSELKIEAGLSNKGWDKAMKSLTKQGLAKVVKTEDQLTVKLL”, the “soluble fraction (log2)” value is -0.0993. For “HMKTLDAFFDQARDAYKKLKKDGDIDNLKVLRNQLQTVRETQGDAVRKKSKEEYRRLVDIIDDIDGLLAAF”, the “soluble fraction (log2)” value is -0.102. The figure for “HMPKLPIIYVLDGHVNKNALTTSGKNKVWIEHELKKHHINSIKDVLIAMTDTEGKFYYQLYD” is -1.44.

Consider “HMESKITTAEAAAILNASPQFVRVAMQRGILNIGIAMQMPNSNKWTYNISPKLLGEYSGKNIEYELERLR”, for which the “soluble fraction (log2)” value was -1.54. With “HMSIVVPDLRGKTLEEARAILKEADLDFEINDSTFSKTARPGTIRDVVPSPGSRVKAGRILFISINGF”, the “soluble fraction (log2)” value was -0.519. With “HMQDVKRYLVNSNQLNVRTGPGKEFEISESLNKGDAVTLLHKESNGWWEVITSTGQGYVYSSMLTKDPW”, the “soluble fraction (log2)” value was -0.525.

Turning to “HMNTLRFPEGTPEKDRMSIILASYNSGIGHVNDARRLARLNGEDPNSWEVVARYLQLKAQPEYYESEAVK”, the “soluble fraction (log2)” value was -0.0728. For the sequence “HMQKLNIEEQIVYDIIFKNKELSANEIQIKSGIKTSILNALLINLEIKQYIKLKFGNFYEIK”, the “soluble fraction (log2)” value worked out at 0.209. The figure for “HMKEKDAYTSEILDTLKNAKLLVVEGTVYPLLTRLKNDGLLNYRWEESTSGPPRKYYGLTDEG” is -0.445; for “HMAEEGEQAASNTAAQAEDRAAELAAAGEKGKQITKTLVAEFGIPKNEAYRLALDAVAAVKAER” it is -0.105. Take “HMNPEAFIQTLKQILSTYEKNDPIYLQEIKADLVKKFRIEIPINALETYLKENGYSNIYLKR”: the “soluble fraction (log2)” value was -0.133. The figure for “HMTFTQFAESHGVIIKSLKASDKIQRGPTVAHPKSDNGAWLWDGNRGGVMAWDGDGQWYWFK” is -1.95.

As to “HMQITQSSEPIDVSALRLGMFIHLEGGWLSHPFPRSSFKITSEDQLVTLRSLGISVLRWSPELSDPE”, the “soluble fraction (log2)” value is -0.834. Regarding “HMQENDLGAVEKIVDDVLHDPKNAQAVADFKAGSEKVLGFLTGQVMKASRGKANPSVVQEVLRQKLKN”, the “soluble fraction (log2)” value was -0.00966. For the sequence “HMSEFGENLKKLRTARDLTQQELGAKVGLSKAVVSKYENGLGYPTFDVLIRIAAYFGVTTDYLLGV”, the “soluble fraction (log2)” value was -0.442. Consider “HMDYLSEFITDKVVRADGYSIRKGELSNEFKQWFITNVGTKNPKPKEIHDYMDRKFGKNKNGIWKNVKIKL”, for which the “soluble fraction (log2)” value is -0.38. “HMDLEIENYDLREILNLFKLDYNFDNVDLKRAQKIALKTHPDKSNLPKEYFMFFMKAFQIVQQIYYYRY”: the “soluble fraction (log2)” value was -0.47. As to “HMKYSNDFDKVSYSLGLSIASNLISSGVKTLNAEAFNDGLATVFEGRMPEINPDEANKILQNFFEGLQKE”, the “soluble fraction (log2)” value amounted to 0.0191. Turning to “HMLQVSDENFVVELVQKVLLDNPSSVQEYKNGKESVLQFLIGQAMKASKGTANPQIVKEIMLKLL”, the “soluble fraction (log2)” value was -0.314. Regarding “HMQNESGLFTMSDLWEAGLMGSENASRKRAAVGAFLGIGFGNGKQFLKRLNHFGVTKEEWESALEQLGE”, the “soluble fraction (log2)” value was -0.684. For the sequence “HMEKTTTLFDETTNPGIIYIGKAMPTGSAISEAAAVWAIKTIDTTTDTEIKWADGVTTYTKVWNNRASYSY”, the “soluble fraction (log2)” value was -1.76. Consider “HMNSSHRLIGLDPGLRVTGWGIVDAIGTKLVHVANGSVKSQQNAPLATRLLELENGLEEVFDNWQPDFA”, for which the “soluble fraction (log2)” value was found to be 0.148. Consider “HMNKDEFLRRLEDALSGEVPASVIRENLNYYADYLSQELGKGRTMDEIIEEIGEPNIVARTIINSAEAA”, for which the “soluble fraction (log2)” value is 0.0708. For the sequence “HMTNLTPKQQQIYQFIRASTQANGYPPTLREIGQQVGVRSPSTVKYHLDNLRTLGLLHWDGGKTRSITLP”, the “soluble fraction (log2)” value is -0.372. For the sequence “HMGHEEPITFDRLPQAAQTFLKTHFDTLTVAYIVADRKFMGVEYEVKYTDRTEVDFRSDGQWESV”, the “soluble fraction (log2)” value is 0.0592.

For the sequence “HMAEKVIVVADSITVGELAEKLNLPVTNLIGELFKNGIVSTINQRIDFETASIIVEELGLDVELERK”, the “soluble fraction (log2)” value was -0.0299. Turning to “HMEKLLTTRQSQIFELAKRKGYWNIPREISITQLAQLTGSSKSTISVMLHAIESKIVDTFYDEI”, the “soluble fraction (log2)” value was -3.2. In the case of “HMTDYKTNLQEFLQQDGEVEIEYKLLAEVGPSHARQFEVDVMMGDRVLGSGVGRNKKAAEQAAAKVALSKL” it was -0.124; in that of “HMGLRERLLNYIAYKGIDKATLERKSGLSNDAVNKMGDNTRVSTLDKISNAFPDINIAWLKTGVGEMILG”, -0.113; in that of “HMPQTDDSEPLGKYGRMRLAYLKNQRPVLYNQMLLNGTLWPHLQDVQKTAYEWLERTMTTLLDK”, -0.0745. With “HMERQAEAWTNRASALISLGRDEEALEAADRAIELDPRLSKAWIDRSTALSNLGRNDEANEAIQMAMFL”, the “soluble fraction (log2)” value was found to be 0.108. The figure for “HMDEIELLLQDAIQKLPEKQRMVFTLRYYDNLPYEEISKILDMSVSTLKTNYHYAKSKIEQYILDHS” is -0.607; for “HMSQTELIIVEEEMDGERLDAFLAEQVEQLSRSAVKNLINEGQVLVNGAKQKASYHVREGDEISIEIPEPQ” it is 0.0254. In the case of “HMVGIVQKTFEPTGIAAEELMKTLKSDKSLDFGNVQILATPKSSTSRQVVVVSGRANDVDRVMMVLSNLDS” it was -0.108; in that of “HMSNTGDIIRKLREESGVTAKELAHRIGLSASQMSRLESGKRRINSEVLTRIARALEVAPSQLID”, -0.136; in that of “HMKSLLTHAEEFVRNNNGRWMLAETSSKESYSSKQNFYLRNNYSIISEIRDFYSVGDNLLVFGKFFT”, 0.0992.

With “HMFINTVELGRAIKRRREELGLSLRDVADVTNVSASTLSRIENGTGKPDADNIARLTGWLDMPIDRVM”, the “soluble fraction (log2)” value was -0.0139. “HMSTEEYDRGYEQGLEEAAKADDAWVANLIKIYSQNTPESMPETMKGRLDAFLYEQQRRAQSVPEM”: the “soluble fraction (log2)” value came to 0.307.

Regarding “HMHLTEAPLIKITYFEADQKKSGGQYITIINHLKKINEYENLLVLENGVKINIDDIYELESV”, the “soluble fraction (log2)” value was -0.132. With “HMSPEVEEISIDHLKAGMRILSDLRLPNGTLVAPKGSVVDAHFIKIVENYVISYFGNPFPDRIKVIM”, the “soluble fraction (log2)” value is -1.4. With “HMELSPVDLGERLKIARETANFTQDAAAKAVGIARTTLVSIEKGQRTARLDEIQALSRFYGVSANALLR”, the “soluble fraction (log2)” value was -0.499. Turning to “HMAIEGIFEKYQRRSDQLIPILQDVQKEFGYIAPESVRHISRYLRISENQIFGVSSFYAQFRFT”, the “soluble fraction (log2)” value was -0.292. As to “HMRFANGHLIWDTIIELRNAERRINRRALADLTGLKPGVVDDHVERWIEKDQLRRAGNGELEVV”, the “soluble fraction (log2)” value was -0.943. As for “HMAATHYEGIKQDGETDDAVIERVLTGLSVTANKDDIFIVKTLIAGTKYSYTAYVYNGNAWAAM”, the “soluble fraction (log2)” value came to 0.0325. For the sequence “HMSSQGSLEKGYSALLDGRLDDAALAYGAALAANPMERDALLGLAYVAHSKGRREEAQALYRKVLR”, the “soluble fraction (log2)” value turned out to be 0.0715. Turning to “HMIQADFIPQVEQRLADRGLSMSGDVMAAFLDRAGYGLRHVSNEIEKLSLYLGDRKKVTVEDVVQMVAPVR”, the “soluble fraction (log2)” value is -0.283. “HMKKTITISNYINVRDFATMSELPVNSILSVLMKNGIFVSLNEKIDFDTAWLVGSELGLEVKQKQG”: the “soluble fraction (log2)” value is -0.214.

On to “HMFDREKFIKLGQEFARVAFENVNKRATDRALKTAAKHYGLPSADELLARLGSSEIAARDVVAELYPNL”, for which the “soluble fraction (log2)” value was -0.34. As to “HMNQTGQYENAAKRFNQLITIDSSDKRAYLQLGISNYNLGNKEKADSLFNIIRNSKDKLLIEELDNFLT”, the “soluble fraction (log2)” value was 0.0481. As for “HMHKYEYESLNHVNVGSNLKYISTHFGQPKLIKKSKYHENLNFAYYLEKKFILTLILEGDRVNAYTITG”, the “soluble fraction (log2)” value came to 0.0565. The figure for “HMTQFSLTTEEINVLKKSYSEFTDSDKELFNKILEKYNKFKNESSNDIAFEAKILEKLQEIENFYE” is -0.126. The figure for “HMNNVRIEHIDTIGTVRLHKKRGVKRVSLRIHQSGEIRVTQPLYLPFSAGVLFAKSHTEWIMKQKQK” is -0.000591; for “HMKALRNQDVVVGKPLAMAVYDQHGVLLLGRGHVVISESQRQQLLERGFSIDAEQLGRLRAAIEATQRV” it is -0.378. Consider “HMPNLAAAIGARVTIRLREASGGFRDIVGTLQRFGDGVNELLNSKGQIISFSEDEIAIWREIK”, for which the “soluble fraction (log2)” value is -0.816.

Regarding “HMNLFNEIEKQYQALQDRSSASLVDLRHLLLDIEELVNSPDYQALAPDQRSTLQAARKELMRRIQKQEN”, the “soluble fraction (log2)” value turned out to be 0.213.

For the sequence “HMGTLRPKGTVVFANLPIAADAKEGDMYNISDQFTTTASFKEGAGNVIPAGSNVYRTDDGFWDVL”, the “soluble fraction (log2)” value is 0.00637. Take “HMSMRILNHTVVKILKRYRIATDEQLQPLLDEAERSGRSLQDVVLDAKLVSETELTKLFADYAD”: the “soluble fraction (log2)” value was -0.0864.
